Measurements taken from US20210292393A1 (published 2021).
Substitutions are numbered along the chain they refer to.

B1: antibody 410 (antibody, V domains shown)
VH: QVQLVQSGAEVKKPGASVKVSCKASGYTFTSYGISWVRQAPGQGLEWMGWISAYNGNTNYAQKLQGRVTMTTDTSTSTAYMELRSLRSDDTAVYYCARGRITIFGVEYYYGMDVWGQGTTVTVSS
VL: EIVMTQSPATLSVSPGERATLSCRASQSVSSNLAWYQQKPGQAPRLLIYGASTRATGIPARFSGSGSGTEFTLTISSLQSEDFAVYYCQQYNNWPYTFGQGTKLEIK
B2: antibody 391 (antibody, V domains shown)
VH: EVQLVESGGGLVQPGGSLRLSCAASGFTFSSYWMHWVRQAPGKGLVWVSRINSDGSSTSYADSVKGRFTISRDNAKNTLYLQMNSLRAEDTAVYYCALGPLDIVGSYYYYGMDVWGQGTTVTVSS
VL: NFMLTQPHSVSESPGKTVTISCTGSSGSIASNYVQWYQQRPGSAPTTVIYEDNQRPSGVPDRFSGSIDSSSNSASLTISGLKTEDEADYYCQSYDSSNQDVVFGGGTKLTVL
B3: antibody 415 (antibody, V domains shown)
VH: QVQLVESGGGVVQPGRSLRLSCAASGFTFSSYAMHWVRQAPGKGLEWVAVISYDGSNKYYADSVKGRFTISRDNSKNTLYLQMNSLRAEDTAVYYCAKTRGGSYFDAFDIWGQGTMVTVSS
VL: not shown
B4: antibody 400 (antibody, V domains shown)
VH: QVQLVESGGGVVQPGRSLRLSCAASGFTFSSYGMHWVRQAPGKGLEWVAVISYDGSNKYYADSVKGRFTISRDNSKNTLYLQMNSLRAEDTAVYYCAKAIDILTGYGPGGMDVWGQGTTVTVSS
VL: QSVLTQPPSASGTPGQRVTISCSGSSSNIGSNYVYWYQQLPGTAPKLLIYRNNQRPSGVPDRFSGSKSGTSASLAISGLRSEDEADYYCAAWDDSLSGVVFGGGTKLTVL
B5: antibody 393 (antibody, V domains shown)
VH: QVQLVESGGGVVQPGRSLRLSCAASGFTFSSYAMHWVRQAPGQGLEWVAVISYDGSNKYYADSVKGRFTISRDNSKNTLYLQMNSLRAEDTAVYYCARAGSGSRHYYGMDVWGQGTTVTVSS
VL: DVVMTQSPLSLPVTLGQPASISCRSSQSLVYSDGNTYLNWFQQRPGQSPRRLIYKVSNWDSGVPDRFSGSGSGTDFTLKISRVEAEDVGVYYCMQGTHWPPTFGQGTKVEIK
B6: antibody 402 (antibody, V domains shown)
VH: QVQLVQSGAEVKKPGASVKVSCKVSGYTLTELSMHWVRQAPGKGLEWMGGFDPEDVETIYAQKFQGRVTMTEDTSTDTAYMELSSLRSEDTAVYYCATGVAVVGTSHSYYYYYGMDVWGQGTTVTVSS
VL: DIQMTQSPSSLSASVGDRVTITCRASQGISNYLAWYQQKPGKVPKLLIYAASTLQSGVPSRFSGSGSGTDFTLTISSLQPEDVATYYCQKYNSAPFTFGPGTKVDIK
B7: antibody 394 (antibody, V domains shown)
VH: QVQLVQSGAEVKKPGASVKVSCKASGYTFTGYYMHWVRQAPGQGLEWMGWINPNNGGTNSAQKFQGRVTMTRDTSISTAYMELNRLRSDDTAVYYCARDITTTAGTDYYYGMDVWGQGTTVTVSS
VL: SYELTQPPSVSVSPGQTARITCSGDALPKQYAYWYQQKPGQAPVLVICKDSERPSGIPERFSGSSSGTTVTLTISGVQAEDEADYYCQSADSSGTYIVFGTGTKVTVL
B8: antibody 397 (antibody, V domains shown)
VH: QVQLVESGGGVVQPGRSLRLSCAASGFTFSSYGMHWVRQAPGKGLESVAVISYDGSNKYYADSVKGRFTISRDNSKNTLYLQMNSLRAEDTAVYYCAKEGQWELQGNAFDIWGQGTMVTVSS
VL: B7 VL with C48Y, A90G, I97R, T101G, V105L
B9: antibody 433 (antibody, V domains shown)
VH: QVQLVESGGGVVQPGRSLRLSCAASGFTFSSYAMHWVRQAPGKGLEWVAVISYDGSNKYYADSVKGRFTISRDNSKNTLYLQMNSLRAEDTAVYYCAKDYEVVIAIGGPGAFDYWGQGTLVTVSS
VL: SYVLTQPPSVSVAPGKTARITCGGNNIGSKSVHWYQQKPGQAPVLVIYYDSDRPSGIPERFSGSNSGNTATLTISRVEAGDEADYYCQVWDSSSDHVVFGGGTKLTVL
B10: antibody 399 (antibody, V domains shown)
VH: QVQLVQSGAEVKKPGASVKVSCKASGYTFTSYGISWVRQAPGQGLEWMGWISAYNGNTNYAQKLQGRVTMTTDTSTSTAYMELRSLRSDDTAVYYCARDSGYDWAGGHYYYYGMDVWGQGTTVTVSS
VL: QSALTQPASVSGSPGQSITISCTGTSSDVGGYNYVSWYQQHPGKAPKLMIYEVSNRPSGVSNRFSGSKSGNTASLTISGLQAEDEADYYCSSYTSSSTLVVFGGGTKLTVL
B11: antibody 359 (antibody, V domains shown)
VH: QVQLVESGGGVVQPGRSLRLSCAASGFTFSSYAMHWVRQAPGKGLEWVAVISYDGSNKYYADSVKGRFTISRDNSKNTLYLQMNSLRAEDTAVYYCAYSGNYWYFDLWGRGTLVTVSS
VL: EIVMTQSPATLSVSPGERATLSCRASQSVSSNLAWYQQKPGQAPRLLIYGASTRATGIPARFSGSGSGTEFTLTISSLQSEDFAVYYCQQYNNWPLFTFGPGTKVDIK
B12: antibody 368 (antibody, V domains shown)
V domain 1: QITLKESGPTLVKPTETLTLTCAFSGFSLTKTGEAAGWIRQAPGRALEWVTVIFWDDDKRYSPSLQNRLTVTKDTSKNVVVLTMTNVDPVDTATYFCWAMGGPGKEFFGQGTRVAVSS
V domain 2: QSVLTQPPSVSGAPGQRVTVSCTGTSSSIGPYSDVHWYQHIPGKAPRLLIFGTSNRPSGVPARFSGSKSGSSASLVIAGLQAEDEADYYCQSYDSSLGEIYVFGTGTTVTVL
B13: antibody 357 (antibody, V domains shown)
VH: QVQLVQSGAEVKKPGSSVKVSCKASGGTFSSYAISWVRQAPGQGLEWMGRIIPILGIANYAQKFQGRVTITADKSTSTAYMELSSLRSEDTAVYYCARGPIAVAGIGPWFDPWGQGTLVTVSS
VL: QSVLTQPPSVSAAPGQKVTISCSGSSSNIGNNYVSWYQQLPGTAPKLLIYDNNKRPSGIPDRFSGSKSGTSATLGITGLQTGDEADYYCGTWDSSLSAVVFGGGTKLTVL
B14: antibody 358 (antibody, V domains shown)
VH: QVQLVESGGGVVQPGRSLRLSCAASGFNLNSYAMHWVRQASGKGLEWVSLMSYDGSIKYYADSVKGRFTVSGDNSRNTLFLQMNSLRPDDSALYYCVRGGVSGPNSFDLWGQGTTVTVSS
VL: DVVMTQSPLSLPVTLGQPASISCRSSQSLVYSDGSTYVNWFQQRPGQSPRRLIYKVSNRDSGVPDRFSGSGSGTDFALKISRVEAEDVGVYYCMQGTHWPVTFGQGTKVEIK
B15: antibody 360 (antibody, V domains shown)
VH: QVQLVESGGGVVQPGRSLRLSCAASGFTFSSYAMHWVRQAPGKGLEWVAVISYDGSNKYYADSVKGRFTISRDNSKNTLYLQMNSLRAEDTAVYYCAKGKNSGSYFFAFDIWGQGTMVTVSS
VL: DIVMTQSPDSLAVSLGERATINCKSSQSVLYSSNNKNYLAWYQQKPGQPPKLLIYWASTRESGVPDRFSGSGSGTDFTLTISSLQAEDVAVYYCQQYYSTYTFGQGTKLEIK
B16: antibody 387 (antibody, V domains shown)
VH: QVQLVESGGGVVQPGRSLRLSCAASGFTFSSYGMHWVRQAPGKGLEWVAVISYDGSNKYYADSVKGRFTISRDNSKNTLYLQMNSLRAEDTAVYYCAKDDTKNYGDLDIDYWGQGTLVTVSS
VL: SYELTQPSSVSVSPGQTARITCSGDVLAKKYARWFQQKPGQAPVLVIYKDSERPSGIPERFSGSSSGTTVTLTISGAQVEDEADYYCYSAADNNLGVFGGGTKLTVL
B17: antibody 353 (antibody, V domains shown)
VH: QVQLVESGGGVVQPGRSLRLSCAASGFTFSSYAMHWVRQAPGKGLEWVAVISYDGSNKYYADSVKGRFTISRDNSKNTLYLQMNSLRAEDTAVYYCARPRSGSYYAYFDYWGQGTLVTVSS
VL: DIQMTQSPSSLSASVGDRVTITCRASQGISNYLAWFQQKPGKAPKSLIYAASSLQSGVPSKFSGSGSGTDFTLTISSLQPEDFATYYCQQYNSYPPTFGGGTKVEIK
B18: antibody 381 (antibody, V domains shown)
VH: QVQLVESGGGVVQPGRSLRLSCAASGFTFSSYAMHWVRQAPGKGLEWVAVISYDGSNKYYADSVKGRFTISRDNSKNTLYLQMNSLRAEDTAVYYCARDRQYYDILTGYYLPTSEYYFDYWGQGTLVTVSS
VL: B17 VL with L11V, N31S, Y32W, F36Y, S46L, K61R, Y91A, Y94F
B19: antibody 356 (antibody, V domains shown)
VH: QVQLVQSGAEVKKPGASVKVSCKASGYTFTSYGISWVRQAPGQGLEWMGWISAYHGNTNYAQKLQGRVTMTTDTSTSTAYMELRSLRSDDTAVYYCARVGLWWLGHADAFDIWGQGTMVTVSS
VL: B17 VL with S30R, Y32D, A34G, F36Y, S46R, K61R, D70E, Q89L, Y91H, P96L
B20: antibody 354 (antibody, V domains shown)
VH: QVQLVESGGGVVQPGRSLRLSCAASGFTFSSYAMHWVRQAPGKGLEWVAVISYDGSNKYYADSVKGRFTISRDNSKNTLYLQMNSLRAEDTAVYYCARDRPYYYGSGIPGYYGMDVWGQGTTVTVSS
VL: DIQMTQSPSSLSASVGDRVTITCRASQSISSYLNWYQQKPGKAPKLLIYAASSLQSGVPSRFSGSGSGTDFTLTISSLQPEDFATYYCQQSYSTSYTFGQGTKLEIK
B21: antibody 336 (antibody, V domains shown)
VH: QVQLVESGGGVVQPGRSLRLSCAASGFTFSSYAMHWVRQAPGKGLEWVAVISYDGSNKYYADSVKGRFTISRDNSKNTLYLQMNSLRAEDTAVYYCARAQTDYYDSSGWFDYWGQGTLVTVSS
VL: SYELTQPPSVSVSPGQTARITCSGDALPKQYAYWYQQKPGQAPVLVIYKDSERPSGIPERFSGSSSGTTVTLTISGVQAEDEADYYCQSADSSGTPHWVFGGGTKLTVL
B22: antibody 338 (antibody, V domains shown)
VH: QVQLQESGPGLVKPSETLSLTCAVSGYSISSDYYWGWIRQPPGKGLEWIGSIYHSGSTYYNPSLKSRVTISIDTSKNQFSLKLSSVTAADTAVYYCARDPGNYDILTGIFDYWGQGTLVTVSS
VL: QSALTQPASVSGSPGQSITISCTGTSSDVGVYNYVSWYQQHPGKAPKLMIYDVTNRPSGVSNRFSGSKSGNTASLTISGLQAEDEADYYCSSYTSSSTLAVYVFGTGTKVTVL

What follows are binders tested against SARS-CoV-2 spike protein (SARS-CoV-2, UniProt P0DTC2 14-1208).

Row | Binder | Kd | koff | kon
1 | B1 | 2.05 nM | 0.000329 s⁻¹ | 161000 M⁻¹ s⁻¹
2 | B2 | ≤ 0.37 nM | ≤ 1e-05 s⁻¹ | 27000 M⁻¹ s⁻¹
3 | B3 | ≤ 0.0125 nM | ≤ 1e-05 s⁻¹ | 802000 M⁻¹ s⁻¹
4 | B4 | 1.28 nM | 0.000624 s⁻¹ | 488000 M⁻¹ s⁻¹
5 | B5 | 0.313 nM | 2.95e-05 s⁻¹ | 94100 M⁻¹ s⁻¹
6 | B6 | 2.14 nM | 6.48e-05 s⁻¹ | 30400 M⁻¹ s⁻¹
7 | B7 | 1.32 nM | 3.52e-05 s⁻¹ | 26600 M⁻¹ s⁻¹
8 | B8 | ≤ 0.0169 nM | ≤ 1e-05 s⁻¹ | 591000 M⁻¹ s⁻¹
9 | B9 | 2.8 nM | 0.000349 s⁻¹ | 125000 M⁻¹ s⁻¹
10 | B10 | ≤ 0.315 nM | ≤ 1e-05 s⁻¹ | 31700 M⁻¹ s⁻¹

These binders were tested against SARS-CoV-2 spike (S) protein (SARS-CoV-2, UniProt P0DTC2 14-1208).

Row | Binder | Kd | koff | kon
11 | B11 | 0.441 nM | 6.67e-05 s⁻¹ | 151000 M⁻¹ s⁻¹
12 | B12 | 12.7 nM | 0.000486 s⁻¹ | 38100 M⁻¹ s⁻¹
13 | B13 | 0.837 nM | 6.53e-05 s⁻¹ | 78000 M⁻¹ s⁻¹
14 | B14 | 1.69 nM | 0.000487 s⁻¹ | 289000 M⁻¹ s⁻¹
15 | B15 | 1.4 nM | 0.000145 s⁻¹ | 104000 M⁻¹ s⁻¹
16 | B16 | 37.4 nM | 0.000808 s⁻¹ | 21600 M⁻¹ s⁻¹
17 | B17 | 0.0601 nM | 4.09e-05 s⁻¹ | 680000 M⁻¹ s⁻¹
18 | B18 | 6.66 nM | 0.000207 s⁻¹ | 31100 M⁻¹ s⁻¹
19 | B19 | 3.65 nM | 9.66e-05 s⁻¹ | 26500 M⁻¹ s⁻¹
20 | B20 | 43.6 nM | 0.00179 s⁻¹ | 41100 M⁻¹ s⁻¹
21 | B21 | 1.11 nM | 0.00021 s⁻¹ | 190000 M⁻¹ s⁻¹
22 | B22 | 0.882 nM | 4.43e-05 s⁻¹ | 50200 M⁻¹ s⁻¹
